In the nanobody polyreactivity screen of Harvey et al. (2022):

Experiment: yeast display, Sf9 membrane polyspecificity reagent, FACS + sequencing; frameworks hold sequencing errors
Summary of the method: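 Galactose-induced (36–48 hours) yeast carrying a synthetic nanobody display library were exposed to 10% biotinylated, detergent-solubilized Sf9 membrane reagent at 4 °C for 1 hour. FACS followed streptavidin microbead enrichment, using low and high (top ~1%) gates for expression (anti-HA) and reagent binding (streptavidin). Colony PCR, MiSeq 2 × 250 sequencing and CDR-length filtering followed. Labels for polyreactivity reflect the gate of origin.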

Row | Sequence | polyreactivity (PSR sort gate)
1 | QVQLVESGGGLVQAGGSLRLSCAASGMTFHRYAMGWYRQTPGKERELVAAINYSGGRTYYADSVKGRFTISRDNAKNTVYLQMNSLKPEDTAVYYCAAPRASGYYWGQGTQVTVSS | high polyreactivity
2 | QVQLVESGGGLVQAGGSLRLICAATGITFEGYAMGWYRQAPGKERELVAAIRSSGTSTYYADSVKGRFTISRDNAKNTVYLQMNSLKPEDTAVYYCNRARSSSRYDYWGQGTQVTVSS | low polyreactivity
3 | QVQLVESGGGLVQAGGSLRLSCAASGSIFTGYAMGWSRQAPGKEREMLAAISWSGGSTSYADSVKGRFTISRDNAKNTVYLQMNSLKPEDTAVYYCSTDVRQGSGWRYYYWGQGTQVTVSS | high polyreactivity
4 | QDQLEESGGGIVQAGGSLRLSCAASGSTFQYYAMGWYRQAPGKERELFAAISASVDTKFYADSVKGRFTISRDNAKNTVYLQMNSLKPEDTAFYYCATDWPHWRKVYWFDYWGQGTQVTVSS | low polyreactivity
5 | QVQLVESGGGLVQAGGSLRLSCAASGRIFGRNAMGWSRQAPGKERELVASITSGGSTNYADSVKGRFTISRYNAKNTVYLQMNSLKPEDTAVYYCNARWTGSYTSTGFRRRFDYWGQGTQVTVSS | high polyreactivity
6 | QVQLVESGGGLVQAGGSLRLSCAASGSTFYIYAMGWYRQAPGKERELVARISGSGGSTYYADSVKGRFTISRDNAKNTVYLQMNSLKPEDTAVYYCAADYIYKYYQYYAFPYYRYDYWGQGTQVTVSS | low polyreactivity
7 | QVQLVESGGGLVQAGGSHRLSCAASGSTFEYYAMGWYRQAPGKERELVAAITTSGGITYYADSVKGRFTISRDNAKNTVYLQMNSLKPEDTAVYYCNADAVPFPTLVTYLYDYWGQGTQVTVSS | low polyreactivity
8 | QVQLVESGGGLVQAGGSLRLSCAASGSTFRYNAMGWYRQAPGKERELFAAISFSGGSTYYADSVKGRFTISRDNAKNTVYLQMNSLKPEDTAVYYCAARWSSWPSYLAVPRLYYWGQGTQVTVSS | high polyreactivity
9 | PVQLVESRGRLVQAGGSLRLSCAASGSIFGYNAMGWYRQAPGKERELVAAISYSGASTYYSDSVKGRFTISRDNAKNTVYLQLNSLKPEDTAVYYCAAGWKRFSGRNHYYWGLGTQVTVSS | high polyreactivity
10 | QVQLLESVGGLVQAGGSLRLSCAASGRTFSRYAMGSYRQAPGKERELVATISSSGGTTYYADSVKGRFTISRDNAKNTVYLQMNSLKPEDTAVYYCNAESKKRTHASGYDYWGHGTQVTVSS | low polyreactivity
11 | QVQLVESGGGLVQAGGSLRLSCAASGIIFWVNAMGWYRQAPGKERELVAAIRSDGSTKYADSVKGRFTISRDNAKNTVYLQMNSLKPEDTALYYCAKRDYSYPWFRDYYYWGQGTQVTVSS | low polyreactivity
12 | QVQLVESGGGLVQAGGSLRLSCAASGSTLTRNAMGWYRQAPGKERELVAAITTSGGRTYYADSVKGRFTISRDNAKNTVYLQMNSLKPEDTAVYYCAARQRSEYVSGSLFYYWGQGTQVTVSS | high polyreactivity
13 | QVQLVESGGGLVQAGGSLRLSCAASGSIFYSYAKGSYLQAPGKERELVADITFSGVSTYYADSVKGRFTISRDNAKNTVYLQMKSLKTEDTAVYYGAADGVSRWYLYRWYDYDYWGQGTQVTVSS | low polyreactivity
14 | QVQLVESGGGLVQAGGSLRLSCAASGSTFYSNAMGWYRQAPGKERELVAGIDTSDGSTNYADSVKGRFTISRDNAKNTVYLQMNSLKPEDTAVYYCAADYTQPGFVSYDYWGQGTQVTVSS | low polyreactivity
15 | QVQLVESGAGLVQAGGSLRLSCAASGFIFVKYAMGWYRQAPGKERELVAAISRSGGRTYYADSVKGRFTISRDNAKNNVYLQMNSLKPEDTAVYYCATDYYEDWRGYEDYWYRPYDYWGQGTQVTVSS | high polyreactivity
16 | QVQLVESGGGLVQAGGSLRLSCAASGSTFWAYAMGWYRQAPGKERELVAAITTGGGRTFYADSVKGRFTISRDNAKNTVYLQMNSLKPEDTAVYYCAAVSQSYRMYYWGEGTQVTVSS | low polyreactivity
17 | QVQLVESGGGLVQAGGSLRLAVLPPDLPSTLNDMGWYRQAPGKERELVAAITRGGSTNYADSVKGRFTISRDNAKNTVYLQMNSLKPEDTAVYYCAAPYAGWRDGGDYWGQGTQVTVSS | low polyreactivity
